Biological target: FLAG-HA-tagged full-length wild-type TOE1 (human) (UniProt Q96GM8)
Test: co-IP; IP-TRAP: lysates of 293T cells transiently expressing FLAG-HA-tagged proteins incubated with anti-FLAG M2 beads at 4°C for 2 h; telomerase in the eluates read by its activity (Q-TRAP)

Substance: active telomerase (endogenous telomerase holoenzyme of 293T cells) (from UniProt O14746 1-1132) (complex)
- telomerase activity brought down, relative to FLAG-TCAB1 (fraction of FLAG-TCAB1): 0.33

— PMC6326811
